Source: patent US6531296

Legend:
[1] = test system: QAg, hexahistidine fusion protein of the carboxy-terminal 62 amino acids of Rak
[2] = test system: QAg mutant with tyrosine 490 changed to phenylalanine
[3] = test system: QAg mutant with tyrosine 450 changed to phenylalanine
[4] = test system: QAg mutant with tyrosine 497 changed to phenylalanine
[5] = test system: QAg mutant with tyrosine 463 changed to phenylalanine

Chain of p50^csk, cytoplasmic tyrosine kinase CSK purified from baculovirus-infected insect cells (P41240 whole entry): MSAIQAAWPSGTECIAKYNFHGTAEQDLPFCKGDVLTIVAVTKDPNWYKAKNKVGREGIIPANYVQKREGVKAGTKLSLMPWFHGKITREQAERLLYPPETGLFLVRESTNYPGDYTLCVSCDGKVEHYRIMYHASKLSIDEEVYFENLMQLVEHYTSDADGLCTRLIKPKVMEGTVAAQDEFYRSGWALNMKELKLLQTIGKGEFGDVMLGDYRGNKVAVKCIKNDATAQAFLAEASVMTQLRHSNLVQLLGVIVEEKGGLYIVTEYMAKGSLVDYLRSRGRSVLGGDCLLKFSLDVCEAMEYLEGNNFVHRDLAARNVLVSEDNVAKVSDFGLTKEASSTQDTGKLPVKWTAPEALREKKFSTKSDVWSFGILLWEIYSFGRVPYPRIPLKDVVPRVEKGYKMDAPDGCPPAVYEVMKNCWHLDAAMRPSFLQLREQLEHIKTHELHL

In the case of “p50^csk, cytoplasmic tyrosine kinase CSK purified from baculovirus-infected insect cells”, the “phosphorylation by CSK (in vitro kinase assay)” value [1] is reported as “This peptide was readily phosphorylated by CSK”, the phosphorylation by CSK (in vitro kinase assay) (fraction of wild-type peptide) [2] is reported as 0.5 and the phosphorylation by CSK (in vitro kinase assay) (fraction of wild-type peptide) [3] is reported as 0.5. The “phosphorylation by CSK (in vitro kinase assay)” value [4] was “Phosphorylation of the 497 mutant, however, was barely detectable” and the “phosphorylation by CSK (in vitro kinase assay)” value [5] was “The mutant at position 463 was phosphorylated at levels equivalent to the wild-type peptide”.
